Reference: PMC7954794, “Protein context shapes the specificity of SH3 domain-mediated interactions in vivo” (Nature Communications, 2021)

B1: ABP1 001 P * (protein, UniProt P15891 2-592, looked up)
Actin-binding protein: ALEPIDYTTHSREIDAEYLKIVRGSDPDTTWLIISPNAKKEYEPESTGSSFHDFLQLFDETKVQYGLARVSPPGSDVEKIIIIGWCPDSAPLKTRASFAANFAAVANNLFKGYHVQVTARDEDDLDENELLMKISNAAGARYSIQTSSKQQGKASTPPVKKSFTPSKSPAPVSKKEPVKTPSPAPAAKISSRVNDNNDDDDWNEPELKERDFDQAPLKPNQSSYKPIGKIDLQKVIAEEKAKEDPRLVQKPTAAGSKIDPSSDIANLKNESKLKRDSEFNSFLGTTKPPSMTESSLKNDDDKVIKGFRNEKSPAQLWAERKAKQNSGNAETKAEAPKPEVPEDEPEGEPDVKDLKSKFEGLAASEKEEEEMENKFAPPPKKSEPTIISPKPFSKPQEPVKAEEAEQPKTDYKKIGNPLPGMHIEADNEEEPEENDDDWDDDEDEAAQPPLPSRNVASGAPVQKEEPEQEEIAPSLPSRNSIPAPKQEEAPEQAPEEEIEEEAEEAAPQLPSRSSAAPPPPPRRATPEKKPKENPWATAEYDYDAAEDNELTFVENDKIINIEFVDDDWWLGELEKDGSKGLFPSNYVSLGN
B2: ABP1 001 P C (protein, UniProt P15891 2-592, looked up)
Actin-binding protein: ALEPIDYTTHSREIDAEYLKIVRGSDPDTTWLIISPNAKKEYEPESTGSSFHDFLQLFDETKVQYGLARVSPPGSDVEKIIIIGWCPDSAPLKTRASFAANFAAVANNLFKGYHVQVTARDEDDLDENELLMKISNAAGARYSIQTSSKQQGKASTPPVKKSFTPSKSPAPVSKKEPVKTPSPAPAAKISSRVNDNNDDDDWNEPELKERDFDQAPLKPNQSSYKPIGKIDLQKVIAEEKAKEDPRLVQKPTAAGSKIDPSSDIANLKNESKLKRDSEFNSFLGTTKPPSMTESSLKNDDDKVIKGFRNEKSPAQLWAERKAKQNSGNAETKAEAPKPEVPEDEPEGEPDVKDLKSKFEGLAASEKEEEEMENKFAPPPKKSEPTIISPKPFSKPQEPVKAEEAEQPKTDYKKIGNPLPGMHIEADNEEEPEENDDDWDDDEDEAAQPPLPSRNVASGAPVQKEEPEQEEIAPSLPSRNSIPAPKQEEAPEQAPEEEIEEEAEEAAPQLPSRSSAAPPPPPRRATPEKKPKENPWATAEYDYDAAEDNELTFVENDKIINIEFVDDDWWLGELEKDGSKGLFPSNYVSLGN
B3: ABP1 001 P E (protein, UniProt P15891 2-592, looked up)
Actin-binding protein: ALEPIDYTTHSREIDAEYLKIVRGSDPDTTWLIISPNAKKEYEPESTGSSFHDFLQLFDETKVQYGLARVSPPGSDVEKIIIIGWCPDSAPLKTRASFAANFAAVANNLFKGYHVQVTARDEDDLDENELLMKISNAAGARYSIQTSSKQQGKASTPPVKKSFTPSKSPAPVSKKEPVKTPSPAPAAKISSRVNDNNDDDDWNEPELKERDFDQAPLKPNQSSYKPIGKIDLQKVIAEEKAKEDPRLVQKPTAAGSKIDPSSDIANLKNESKLKRDSEFNSFLGTTKPPSMTESSLKNDDDKVIKGFRNEKSPAQLWAERKAKQNSGNAETKAEAPKPEVPEDEPEGEPDVKDLKSKFEGLAASEKEEEEMENKFAPPPKKSEPTIISPKPFSKPQEPVKAEEAEQPKTDYKKIGNPLPGMHIEADNEEEPEENDDDWDDDEDEAAQPPLPSRNVASGAPVQKEEPEQEEIAPSLPSRNSIPAPKQEEAPEQAPEEEIEEEAEEAAPQLPSRSSAAPPPPPRRATPEKKPKENPWATAEYDYDAAEDNELTFVENDKIINIEFVDDDWWLGELEKDGSKGLFPSNYVSLGN

Test system: Hua2
Assay: Deep mutational scanning of Abp1 SH3, Abp1-Hua2 DHFR-PCA (DMS score)
Type: cell-based, Saccharomyces cerevisiae
Conditions: for ratio (log2 scale): HUA2_MTX2 (test) vs HUA2_S2 (reference); for ratio (log2 scale) / ratio (log2 scale) mean / frequency (reference condition) / frequency (test condition): amino acid mutation format; for ratio (log2 scale) / frequency (reference condition) / frequency (test condition): replicate 1, Fig. S3A-B; for ratio (log2 scale) mean: condition HUA2_MTX2; for ratio (log2 scale) mean / frequency (reference condition) mean / frequency (test condition) mean / frequency (log2 scale) (reference condition) mean / frequency (log2 scale) (test condition) mean: Fig. S3E; for frequency (reference condition): reference condition HUA2_S2; for frequency (reference condition) mean / frequency (log2 scale) (reference condition) mean: reference condition for HUA2_MTX2; for frequency (test condition) / frequency (test condition) mean / frequency (log2 scale) (test condition) mean: test condition HUA2_MTX2
Experimental: Single site mutation libraries were generated by a PCR-based saturation mutagenesis method[50] as described below. The mutagenesis was carried out on the pUC19 plasmid containing the SH3 domain sequence of ABP1 flanked by its homology arms subsequently used in the CRISPR mediated genomic re-integration. We used oligos containing degenerate nucleotides (NNN) to carry out the mutagenesis at each codon of the domain sequence. In the first step of the two-step PCR procedure (short PCR step), an amplicon was generated with an oligo containing the degenerate codon which is positioned within the domain sequence, and another oligo lying outside Abp1 sequence in the plasmid. Short PCR step was carried out with the following settings: 5 min at 95 °C, 35 cycles: 20 s at 98 °C, 15 s at 60 °C, 30 s at 72 °C, and a final extension of 1 min at 72 °C. The amplicon generated in this step was used as a mega primer in the second step (long PCR step) to amplify the whole plasmid. Long PCR step was carried out with the following settings: 5 min at 95 °C, 22 cycles: 20 s at 98 °C, 15 s at 68 °C, 3 min 30 s at 72 °C, and a final extension of 5 min at 72 °C. The long PCR product was digested for 2 h at 37 °C with DpnI. The digestion product was then transformed into E. coli MC1061 competent cells. In order to obtain most of the 64 possible codons, we recovered ~1000 colonies from each plate to retrieve the plasmid single mutant libraries. Saturation mutagenesis was carried out in a codon-position-wise manner. Mutants at each position were stored separately. Library quality control was assessed by amplifying the purified plasmid DNA preparations by PCR followed by Illumina sequencing as described below. The genomic insertion of the mutant libraries (one library per amino acid position) was performed by targeting the stuffer sequence in the ABP1 SH3-deleted strain as described in the strain construction section. ABP1 SH3-deleted yeast competent cells were co-transformed with pCAS containing the stuffer-specific gRNA and PCR amplified ABP1 SH3 single position mutated libraries from the pUC19 preparations. As for the library generation, ~1000 colonies from each plate were retrieved. Glycerol stocks of yeast cells were kept for each position (58 different stocks corresponding to the 58 amino acid positions of Abp1 SH3). The stocks were also validated by Illumina sequencing (see below).
Liquid DHFR-PCA experiments were performed following the generation of the ABP1 SH3 single position mutated yeast strains and were performed in biological independent duplicates. An overnight culture was started in YPD + NAT by adding the same number of cells from each yeast mutant strain (master pool). Then, the master pool and Hua2-DHFR F[3] or Lsb3-DHFR F[3] preys strains were mixed in YPD (2:1) for mating and incubated for 8 h at 30 °C. Diploid cells were selected the first time by transferring the mixture in a YPD + NAT + HPH (OD 0.5) culture for 16 h at 30 °C. The next day, the first diploid selection was transferred in SC complete pH 6.0 + NAT + HPH at 0.5 OD and the culture was grown for 24 h at 30 °C. The validation of the yeast mutant libraries was done the next day with a fraction of the diploid cells (first DHFR-PCA experiment time point without PCA selection, reference condition S2) by amplifying ABP1 SH3 genomic sequence followed by Illumina sequencing as described in the section below. Following the selection, diploid cells OD was read using a TECAN Infinite F200 Pro, and dilutions to 0.1 OD in PCA selection media without agar in a 50 mL tube was done. Tubes were incubated at 30 °C for 72 h (second-time point of the DHFR-PCA experiment, first PCA selection). A fraction of the cells (5U OD) was collected for Illumina sequencing. The cells from the first PCA step were grown for a second PCA selection step using the same procedures. […]

| Molecule | ratio (log2 scale) | ratio (log2 scale) mean | frequency (reference condition) | frequency (reference condition) mean | frequency (test condition) | frequency (test condition) mean | frequency (log2 scale) (reference condition) mean | frequency (log2 scale) (test condition) mean |
| --- | --- | --- | --- | --- | --- | --- | --- | --- |
| B1 | -1.421 log2 scale | -1.432 log2 scale | 0.001041 | 0.0009397 | 5.39E-06 | 2.69E-06 |  |  |
| B2 | 2.7124 log2 scale | 3.075 log2 scale | 0.0005961 | 0.0004649 | 0.001896 | 0.001734 | -1.441 log2 scale | -1.435 log2 scale |
| B3 | 2.627 log2 scale | 2.654 log2 scale | 0.0007975 | 0.0006949 | 0.002419 | 0.002135 | -1.4398 log2 scale | -1.434 log2 scale |
